For one molecule, Kd results are on record in PMC12713436 (2025).

This assay has as its target secretory immunoglobulin A1 (sIgA1) from human colostrum (human (endogenous in colostrum), UniProt P01591 23-159; P01833 19-603, dense O-glycosylation, predominantly in the hinge region). Put plainly: apparent Kd from DLS Hill fit, h = 2.04.

Sequence of secretory immunoglobulin A1 (sIgA1) from human colostrum (chain, as listed by the source, chain 1 of 3): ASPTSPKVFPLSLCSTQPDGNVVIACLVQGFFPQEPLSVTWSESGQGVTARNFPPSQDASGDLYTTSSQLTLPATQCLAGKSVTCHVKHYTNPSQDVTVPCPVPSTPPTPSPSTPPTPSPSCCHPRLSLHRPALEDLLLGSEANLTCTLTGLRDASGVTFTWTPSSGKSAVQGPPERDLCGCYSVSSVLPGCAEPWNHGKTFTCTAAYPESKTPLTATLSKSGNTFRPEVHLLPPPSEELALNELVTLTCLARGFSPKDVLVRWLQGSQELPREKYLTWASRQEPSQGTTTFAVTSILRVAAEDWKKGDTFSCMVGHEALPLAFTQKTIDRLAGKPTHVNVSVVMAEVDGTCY
Sequence of secretory immunoglobulin A1 (sIgA1) from human colostrum (P01591 23-159, chain 2 of 3): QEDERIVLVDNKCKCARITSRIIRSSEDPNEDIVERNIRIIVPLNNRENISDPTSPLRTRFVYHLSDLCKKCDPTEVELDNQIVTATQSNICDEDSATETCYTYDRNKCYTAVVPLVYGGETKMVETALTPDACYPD
Sequence of secretory immunoglobulin A1 (sIgA1) from human colostrum (P01833 19-603, chain 3 of 3): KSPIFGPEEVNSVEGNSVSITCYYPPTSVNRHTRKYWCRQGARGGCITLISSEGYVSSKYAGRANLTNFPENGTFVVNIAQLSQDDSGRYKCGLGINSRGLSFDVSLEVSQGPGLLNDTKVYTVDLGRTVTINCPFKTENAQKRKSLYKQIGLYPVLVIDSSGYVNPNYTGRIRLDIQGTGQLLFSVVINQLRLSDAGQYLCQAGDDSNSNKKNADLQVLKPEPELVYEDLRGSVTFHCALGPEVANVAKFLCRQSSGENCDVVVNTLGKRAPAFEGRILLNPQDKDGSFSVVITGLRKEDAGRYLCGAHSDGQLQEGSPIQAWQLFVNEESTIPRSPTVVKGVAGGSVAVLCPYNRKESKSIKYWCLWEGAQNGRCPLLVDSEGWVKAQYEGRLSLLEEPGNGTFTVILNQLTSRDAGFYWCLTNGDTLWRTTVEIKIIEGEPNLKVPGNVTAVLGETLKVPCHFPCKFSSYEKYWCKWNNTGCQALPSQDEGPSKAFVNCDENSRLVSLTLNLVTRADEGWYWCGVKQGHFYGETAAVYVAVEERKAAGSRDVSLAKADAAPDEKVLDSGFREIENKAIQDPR

B1: frutalin (FTL), galactose-specific jacalin-related lectin from Artocarpus altilis (syn. Artocarpus incisa) seeds (natural protein)
chain 1: GKAFDDGAFTGIREINLSYNKETAIGDFQVIYDLNGSPFVGQNHTSFITGFTPVKISLDFPSEYIIEVSGHTGKVSGYVVVRSLAFKTNKKTYGPYGVTSGTPFNLPIENGLIVGFKGSIGYWLDYFSMYLSL
chain 2: AEQSGKSQTVIVGPWGAQVS
modifications: α-chain glycoisoforms (differential glycosylation and limited proteolysis)
Turning to B1, the Kd is 930 nM.
